These results are taken from patent publication US20160333110A1 (CHIOME BIOSCIENCE, published 2016).

Test [1] has as its target T1, human TROP-2 (hTROP-2) endogenously expressed on the cell surface of human cancer cell lines (human, UniProt P09758 27-323).
T1 construct: also called TACSTD2; PK-59 cells
T1 sequence: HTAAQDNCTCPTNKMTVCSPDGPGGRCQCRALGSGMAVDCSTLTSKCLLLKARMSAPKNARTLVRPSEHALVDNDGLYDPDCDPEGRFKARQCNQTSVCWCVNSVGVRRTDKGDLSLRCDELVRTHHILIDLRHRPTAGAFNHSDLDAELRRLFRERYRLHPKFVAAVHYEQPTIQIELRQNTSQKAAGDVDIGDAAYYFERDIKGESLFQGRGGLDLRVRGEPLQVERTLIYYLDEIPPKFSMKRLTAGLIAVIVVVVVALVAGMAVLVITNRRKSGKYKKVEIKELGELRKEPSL
Kind of test: FACS on PK-59 cells, 0.1 µg antibody. The procedure:
(§1) Cancer cells were removed from a culture dish by a trypsin treatment, and a cell suspension was then prepared (cell density: 2×10⁶ cells/mL). An anti-hTROP-2 monoclonal antibody (0.1 μg) was added to 100 μL of the cell suspension, and they were then reacted at 4° C. for 20 minutes. The reaction solution was washed with PBS, and it was then reacted with PE-labeled anti-mouse IgG (BD Biosciences Pharmingen) (0.1 μg) (at 4° C. for 30 minutes). Thereafter, the resultant was analyzed by FACSCalibur (Becton, Dickinson and Company).
(§2) Subsequently, the reactivity of the generated anti-hTROP-2 monoclonal antibodies with human cancer cell lines (in which an hTROP-2 protein was endogenously expressed on the cell surface) was examined by FACS analysis.

Test [2] has as its target T1, human TROP-2 (hTROP-2) endogenously …. Put plainly: FACS on BxPC-3 cells, 0.1 µg antibody. The protocol: as §1, §2
The target of test [3] is T2, mouse TROP-2 protein transiently expressed in CHO-K1 cells (mouse, UniProt Q8BGV3 25-317).
T2 construct: whole, on cells
T2 sequence (looked up): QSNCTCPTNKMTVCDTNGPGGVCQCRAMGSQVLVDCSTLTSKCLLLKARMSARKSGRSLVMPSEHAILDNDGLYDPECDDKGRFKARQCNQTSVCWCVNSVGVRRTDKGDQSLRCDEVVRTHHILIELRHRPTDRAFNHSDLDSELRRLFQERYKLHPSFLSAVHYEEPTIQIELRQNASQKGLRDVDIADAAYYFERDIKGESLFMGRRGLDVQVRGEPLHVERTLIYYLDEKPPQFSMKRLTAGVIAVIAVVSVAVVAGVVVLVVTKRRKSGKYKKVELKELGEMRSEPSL
Put plainly: FACS on CHO-K1 cells transiently expressing mouse TROP-2. The text has this:
(§3) Specifically, each of an expression vector (mouse TROP-2-pcDNA3.1(+), furnished by the Institute of Molecular and Cellular Biosciences, the University of Tokyo) comprising the full-length cDNA of a mouse TROP-2 gene (GenBank accession No. NM_020047, Y08830), and an expression vector (pcDNA3.1-hEpCAM-myc/His) comprising the full-length cDNA of a human TROP-1/EpCAM gene (GenBank accession No. NM_002354), was transiently introduced into CHO-K1 cells, using Lipofectamine2000 reagent (Invitrogen). Thereafter, 24 to 48 hours later, the cells were removed from a culture dish by treating them with trypsin, and a cell suspension was then prepared. The thus prepared cell suspension was successively reacted with the produced anti-hTROP-2 monoclonal antibody (0.1 μg) and with PE-labeled anti-mouse IgG, and it was then analyzed by FACSCalibur.

The target of test [4] is T3, human TROP-1/EpCAM protein transiently expressed in CHO-K1 cells (human, UniProt P16422 24-314).
T3 construct: whole, on cells; also called human EpCAM/TROP-1; hEpCAM; not shown: C-terminal myc/His tag from pcDNA3.1-hEpCAM-myc/His
T3 sequence (looked up): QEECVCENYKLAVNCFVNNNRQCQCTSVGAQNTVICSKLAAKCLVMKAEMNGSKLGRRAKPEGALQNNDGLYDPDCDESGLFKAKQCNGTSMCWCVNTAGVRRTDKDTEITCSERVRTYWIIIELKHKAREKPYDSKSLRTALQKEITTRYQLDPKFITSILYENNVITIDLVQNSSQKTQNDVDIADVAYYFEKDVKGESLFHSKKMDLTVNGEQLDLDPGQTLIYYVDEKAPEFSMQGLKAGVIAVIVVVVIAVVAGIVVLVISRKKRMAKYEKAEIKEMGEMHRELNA
Put plainly: FACS on CHO-K1 cells transiently expressing human EpCAM/TROP-1.
Description: as §3

The target of test [5] is T4, recombinant protein of the hTROP-2 extracellular region (human, UniProt P09758 27-263).
T4 construct: produced with baculovirus, purified on Ni Sepharose; also called hTROP-2 EC; hTROP-2-EC-His; not shown: C-terminal myc-His tag from pcDNA4/myc-His A
T4 sequence: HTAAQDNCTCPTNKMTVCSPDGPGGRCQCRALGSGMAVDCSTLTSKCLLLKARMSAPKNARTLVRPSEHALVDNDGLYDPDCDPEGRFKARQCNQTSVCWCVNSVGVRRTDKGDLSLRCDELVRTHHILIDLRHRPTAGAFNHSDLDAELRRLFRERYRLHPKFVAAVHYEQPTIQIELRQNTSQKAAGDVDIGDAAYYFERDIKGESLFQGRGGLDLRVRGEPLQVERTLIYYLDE
Kind of test: antigen-coated ELISA, plate coated with 0.5 µg/ml hTROP-2 extracellular region. The protocol: (§4) Furthermore, antigen affinity was also examined by an ELISA method. ELISA was carried out using an ELISA plate which was coated with the recombinant protein of the hTROP-2 extracellular region as described in Example 3. Specifically, a 96-well plate (BD FALCON) was coated with a 50 μl/well recombinant protein of a hTROP-2 extracellular region that had been diluted with PBS to 0.5 μg/ml (at 4° C. overnight). Thereafter, the resultant was washed with a washing buffer (PBS containing 0.05% Tween 20), and a blocking buffer (PBS containing 2% skim milk and 0.05% Tween 20) was then added thereto (200 μl/well) to block it (at room temperature for 1 hour). The resultant was washed with a washing buffer. […] The obtained dilution samples were each added in an amount of 50 μl/well to the above-described ELISA plate (at room temperature for 2 hours). […] After the mixture had been washed with a washing buffer, a TMB (3,3′,5,5′-tetramethylbenzidine: SIGMA) substrate solution was added (50 μl/well) to the resultant to carry out a color reaction. Then, 1 M sulfuric acid (25 μl/well) was added to the reaction product to terminate the reaction. Using Microplate reader Model 550 (BioRad), an absorbance at 450 nm was measured with an absorbance at 655 nm used as a reference.
(An ELISA detects its analyte on a solid surface through an enzyme-linked reagent.)

The target in test [6] is T5, recombinant hTACSTD2-Fc-His protein (Creative BioMart) (human, UniProt P09758 27-274, limits assumed).
T5 construct: bought protein; also called hTROP-2 (low-density antigen-coated ELISA); not shown: Fc part of the bought fusion protein; not described; His tag
T5 sequence: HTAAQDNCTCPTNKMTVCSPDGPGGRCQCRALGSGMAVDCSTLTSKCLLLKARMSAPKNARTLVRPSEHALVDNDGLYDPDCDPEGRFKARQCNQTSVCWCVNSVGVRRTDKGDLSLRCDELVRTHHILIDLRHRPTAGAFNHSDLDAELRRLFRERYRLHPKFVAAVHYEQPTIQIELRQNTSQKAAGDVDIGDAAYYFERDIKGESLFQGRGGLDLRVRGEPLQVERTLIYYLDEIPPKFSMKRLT
Put plainly: low-density antigen-coated ELISA, plate coated with 0.1 µg/mL hTACSTD2-Fc-His. The procedure: as §4, with “Specifically, a 96-well plate (BD FALCON) was coated with a 50 μl/well recombinant protein of a hTROP-2 extracellular region that had been diluted with PBS to 0.5 μg/ml (at 4° C. overnight).” left out

B1: anti-hTROP-2 monoclonal antibody clone K5-116-2-1 (antibody, mouse IgG2a, V domains shown)
VH: QVQLQQPGAELVRPGASVKLSCKASGYTFTSYWITWVKQRPGQGLEWIGNIYPSDSYTNYNQKFRDKATLTVDKSSSTAYMQLSSPTSEDSAVYYCSALFDYWGQGTTLTVSS
VL: DILLTQSPAILSVSPGERVSFSCRASQSIGTSIHWYQQRTNGSPRLLIKYASESISGIPSRFSGSGSGTDFILSINSVESEDIADYYCQQSNSWPFTFGSGTKLEIK
notes: mouse IgG2a, hybridoma FERM BP-11253
Turning to B1, the “mean fluorescence intensity, times that with PE-labeled anti-mouse IgG alone” value was determined as 122 times in test [1] and 121 times in test [2]. In addition, the binding result in test [3] and in test [4] was “no binding (tested: 0.1 µg antibody)” in each case.

B2: anti-hTROP-2 monoclonal antibody clone K5-107 (antibody, mouse IgG1, V domains shown)
VH: QVQLQQPGSELVRPGASVKLSCKASGYTFTSYWMHWVKQRHGQGLEWIGNIYPGGGYTNYDEKFKSKGTLTVDTSSSTAYMHLSSLTSEDSAVYYCTRSSVFDYWGQGTTLTVSS
VL: DILLTQSPAILSVSPGERVSFSCRASQNIGTSIHWFQQRTNGSPRLLIKYASESISGIPSRFSGSGSGTDFTLSINSVESEDIADYYCQQSNSWPFTFGSGTKLEIK
notes: mouse IgG1, hybridoma FERM BP-11252
Regarding B2, the binding result in test [3] and in test [4] was “no binding (tested: 0.1 µg antibody)” in each case.

B3: humanized T6-16 antibody HuT6-16-1 (antibody, V domains shown)
VH: QVQLVQSGAEVKKPGASVKVSCKASGYTFTDYNMHWVRQAPGQGLEWIGYIYPYNGGTGYNQRFKSRATMTVDKSTSTAYMELRSLRSDDTAVYYCAREDYGSSPSYAMDYWGQGTMVTVSS
VL: DIVMTQSPLSLPVTPGEPASISCRSSQSLVHGNGNTYLHWYLQKPGQSPQLLIYKVSNRFSGVPDRFSGSGSGTDFTLKISRVEAEDVGVYYCSQTTHVPTFGGGTKVEIK
notes: HuT6-16 VH1 with HuT6-16 VL; also called HuT6-16-1 antibody
Broadly, the EC50 is the concentration at which the effect is half-maximal. Take B3: in test [5], the EC50 came to 0.027 µg/mL.

B4: humanized T6-16 antibody HuT6-16-2 (antibody, V domains shown)
VH: QVQLVQSGAEVKKPGASVKVSCKASGYTFTDYNMHWVRQAPGQGLEWIGYIYPYNGGTGYNQRFKSRATMTVDTSTSTAYMELRSLRSDDTAVYYCAREDYGSSPSYAMDYWGQGTMVTVSS
VL: DIVMTQSPLSLPVTPGEPASISCRSSQSLVHGNGNTYLHWYLQKPGQSPQLLIYKVSNRFSGVPDRFSGSGSGTDFTLKISRVEAEDVGVYYCSQTTHVPTFGGGTKVEIK
notes: HuT6-16 VH2 with HuT6-16 VL; also called HuT6-16-2 antibody
B4: the EC50 was 0.049 µg/mL in test [6] and 0.027 µg/mL in test [5].
